# Measurements published in paper PMC9894130, “SV40 T-antigen uses a DNA shearing mechanism to initiate origin unwinding” (Proceedings of the National Academy of Sciences of the …, 2022).
# B1: SV40 large T-Antigen helicase, residues 131-627 (T-Ag^131–627) (domain or fragment)
# chain: KVEDPKDFPSELLSFLSHAVFSNRTLACFAIYTTKEKAALLYKKIMEKYSVTFISRHNSYNHNILFFLTPHRHRVSAINNYAQKLCTFSFLICKGVNKEYLMYSALTRDPFSVIEESLPGGLKEHDFNPEEAEETKQVSWKLVTEYAMETKCDDVLLLLGMYLEFQYSFEMCLKCIKKEQPSHYKYHEKHYANAAIFADSKNQKTICQQAVDTVLAKKRVDSLQLTREQMLTNRFNDLLDRMDIMFGSTGSADIEEWMAGVAWLHCLLPKMDSVVYDFLKCMVYNIPKKRYWLFKGPIDSGKTTLAAALLELCGGKALNVNLPLDRLNFELGVAIDQFLVVFEDVKGTGGESRDLPSGQGINNLDNLRDYLDGSVKVNLEKKHLNKRTQIFPPGIVTMNEYSVPKTLQARFVKQIDFRPKDYLKHCLERSEFLLEKRIIQSGIALLLMLIWYRPVAEFAQSIQSRIVEWKERLDKEFSLSVYQKMKFNVAMGIGVLD
# notes: Simian Virus 40 large T-Antigen, residues 131-627; lacks the N-terminal DnaJ-homology domain and the extreme C-terminal host-range determination region; holds OBD, ZBD and AAA+ domains; also called J-domain truncated T-Ag; source: expressed in E. coli (details in the SI Appendix)
# Molecular target: the molecule itself
# Assay: cryo-EM structure; T-Ag^131–627 incubated with AMP-PNP in the absence of DNA (apo form); 3D map at 5.6 Å, rigid-body docking of crystal structures of smaller fragments
protein,measurement,value
B1,stoichiometry N,6
